From article PMC10557681

Molecular target: recombinant WU2 (r)PspA possessing only αHD and PRD (Streptococcus pneumoniae serotype 3 strain WU2)
Assay: SPR

recombinant lactoferrin (LF) (from UniProt P02788 20-710) (natural protein)
Kd: 3.89 nM
